# This sample holds only a part of the variants without activity.
# B1: TPR 5TU (parent)
# chain: GGAUCUUCUCGAUCUAACAAAAAAGACAAAUCUGCCACAAAGCUUGAGAGCAUCUUCGGAUGCAGAGGCGGCAGCCUUCGGUGGCGCGAUAGCGCCAACGUUCUCAACUAUGACACGCAAAACGCGUGCUCCGUUGAAUGGAGUUUAUCAUG
# Variants of: B1
# Assay: polymerase ribozyme fitness, log enrichment relative to wild type (log ratio); higher = more active; in vitro selection for triplet polymerase activity
# Summary of the method: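 Mutant libraries of each subunit of a heterodimeric triplet polymerase ribozyme were built by PCR and transcribed. Each library went through one round of in vitro selection in triplicate: annealing with biotinylated primer, partner subunit and triplets, frozen incubation at −7 °C, gel excision of extended constructs, streptavidin-bead capture and RT-PCR. Input and output libraries were Illumina-sequenced; only genotypes with ≥10 input reads and ≥1 read per output were kept. Fitness is log2(genotype enrichment/wild-type enrichment), using inverse-variance-weighted replicate averages.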
row,Variant,polymerase ribozyme fitness (log ratio)
1,GGAUCUUCUCGAUCUAACAAAAAAGACAAAUCUGCCACAAAGCUUGAUAGCAUCUUCGGAUGCAAAGGCGGCAGCCUUCGGUGGCGCGAUAGCGUCAACGUUCUUAACUAUGACACGCAAAACGCGUGGUCUGUUGAAUGGAGUUUAUCAUG [G48U G65A C95U C105U C129G C132U],≤ -4.2
2,GGAUCUUCUCGAUCUAACAAAAAAGACAAAUCUGCCACAAAGCUUGAUAGCAUCUUCGGAUGCAGAGGCGGCAGCCUUCGGUGGCGCGAUAGCGCCAGCGUUCUCAACUAUGACACGCAAAACGCGUGCUCCGUUGAAUGGAGUUUAUCAUG [G48U A98G],-0.0311
3,GGAUCUUCUCGAUCUAACAAAAAAGACAAAUCUGCCACAAAGCUUGAUCGCAUCUUCGGAUGCAGAGGGGGCAGCCUUCGGUGGCACGAUAGUGCCAACGUUCUCAACUAUGACACGCAAAACGCGUGCUCCGUUGAAGGGAGUUUAUCGUG [G48U A49C C69G G86A C93U U139G A150G],≤ -4.2
4,GGAUCUUCUCGAUCUAACAAAAAAGACAAAUCUGCCACAAAGCUUGACAGCAUCAUCGGAUGCAGAGGCGGCAGCCUUCGGUGGCGCGAUAGCGCCAACGUUCUCAACUAUGACACGCAAAUCGCGUGCUCCGUUGAAUGGAGUUUAUCAUG [G48C U55A A122U],0.121
5,GGAUCUUCUCGAUCUAACAAAAAAGACAAAUCUGCCACAAAGCUUGAUAGCAUCUUCGGAUGCAGAGGCGGCAGCCUUCGGUGGCGCGAUAGGGCCAACGUUCUCAACUAUGACACGCAAAACGCGUGCUCCGUUGAAUGGAGUUUAUCAUG [G48U C93G],-3.47
6,GGAUCUUCUCGAUCUAACAAAAAAGACAAAUCUGCCACAAAGCUUGACAGCAUCUUCGGAUGCAGAGGCGGCAGCCUUCGGUGGCGCGAUAGCGCCAACGUUCUCAACUAUGACACGCAAAACGCGUGCUCCGUUGAAUGGAGUGUAUCAUG [G48C U145G],-0.0374
7,GGAUCUUCUCGAUCUAACAAAAAAGACAAAUCUGCCACAAAGCUUGAUAGCAUCUUCGGAUGCAGAGGCGGCAGCCUUCGGUGGCGCGAUAGCGCCAACGUUCUCAACUAUGACACGCAAAACGCUUGCUCCGUUGAAUGGAGUUUAUCAUG [G48U G126U],-0.307
8,GGAUCUUCUCGAUCUAACAAAAAAGACAAAUCUGCCACAAAGCUUGAUAGCAUCUUCGGAUGCAGAGGCGGCAGCCUUCGGUGGCGCGAUAGCACCAACGUUCUCAACUAUGACACGCAAAACGCGUGCUCCGUUGAAUGGAGUUUAUCACG [G48U G94A U151C],≤ -4.2
9,GGAUCUUCUCGAUCUAACAAAAAAGACAAAUCUGCCACAAAGCUUGAUAGCAUCUUCGGAUGCAGAGGCGGCAGCCUUCGGUGGCGCGAUAGCGCCAACGUUCUCAACUAUGACAUGCAAAACGCGUGCUCCGUUGAAUGGAGUUUAUCAUG [G48U C116U],-0.65
10,GGAUCUUCUCGAUCUAACAAAAAAGACAAAUCUGCCACAAAGCUUGAUAGCAUCUUCGCAUGCAGAGGCGGCAGCCUUCGAUGGCGCGAUAGCGCCUACGUUCUCAACUAUGACACGCAAAACGCGUGCUCCGUUGAAUGGAGUUUAUCAUG [G48U G59C G81A A97U],-1.88
11,GGAUCUUCUCGAUCUAACAAAAAAGACAAAUCUGCCACAAAGCUUGAUAGCAUCUUCGGAUGCAGAGGCGGCGGCCUUCGGUGGCGCGAUAGCGCCAACGUUCUCAACUAUGACACGCAAACCGCGUGCUCCGUUGAAUGGAGUUCAUCAUG [G48U A73G A122C U146C],-0.965
12,GGAUCUUCUCGAUCUAACAAAAAAGACAAAUCUGCCACAAAGCUUGAUAGCAUCUUCGGAUGCAGAGGCGGCAGCCUUCGGUGGCGCGAUAUCGCCAACGUUCUCAACUAUGACACGCAACACGCGUGCUCCGUUGAAUGGAGUUUAUCCUG [G48U G92U A121C A150C],≤ -4.2
13,GGAUCUUCUCGAUCUAACAAAAAAGACAAAUCUGCCACAAAGCUUGAUAGCUUCUUCGGAUGCAGAGGCGGCAGCCUUCGGUGGCGCGAUAGAGUCAACGUUCUCAACUAUGACACGCAAAACGCGUGCUCCGUUGAAUGGAGUAUAUCAUG [G48U A52U C93A C95U U145A],≤ -4.2
14,GGAUCUUCUCGAUCUAACAAAAAAGACAAAUCUGCCACAAAGCUUGAUAGCAUCAUCGGAUGCAGAGGCGGCAGCCUUCGGUGGCGCGAUAGCGCCAAUGUUCUCAACUAUGACACGCAAAACGCGUGCUCCGUUGAAUGGAGUUUAUCAUG [G48U U55A C99U],-2.23
15,GGAUCUUCUCGAUCUAACAAAAAAGACAAAUCUGCCACAAAGCUUGAUAGCAUCAUCGGAUGCAGAGGCGGCAGCCUUCGGUGGCGCGAUAGCGCGAACGUUCUCAACUAUGACUCGCAAAACGCGUGCUCCGUUGAAUGGAGUUUAUCAUG [G48U U55A C96G A115U],-4.16
16,GGAUCUUCUCGAUCUAACAAAAAAGACAAAUCUGCCACAAAGCUUGAUAGCAUCUUCGAAUGCAGAGGCGGCAGCCUUCGGUGGCGCGAUAGUGCCAACGUUCUCAACUAUGACACGCAAAACGCGUGCUCCGUUGAAUGGAGUUUAUCAUG [G48U G59A C93U],-1.39
17,GGAUCUUCUCGAUCUAACAAAAAAGACAAAUCUGCCACAAAGCUUGACAGCAUCAUCGGAUGCAGAGGCGGCAGCCUUCGGUGGCGCGAUAGCGCCAACGUUCUCAUCUAGGACACGCAAAACGCGUGCUCCGUUGAAUGGAGUUUAUCAUG [G48C U55A A107U U111G],≤ -4.2
18,GGAUCUUCUCGAUCUAACAAAAAAGACAAAUCUGCCACAAAGCUUGAUAGCAUCUUCGGAUGCAGAGGCGGCAGCCUUCGGUGGAGCGAUAGCGCCAACGUUCUCAACUAUGACACGCAAAACGCGCGCUCCGUUGAAUGGAGUUUAUCAUG [G48U C85A U127C],-2.74
19,GGAUCUUCUCGAUCUAACAAAAAAGACAAAUCUGCCACAAAGCUUGAUAGCAUCUUCGGAUGCAGAGGCGGCAGGCUUCGGUGGCGCGAUAUCGCCAACGUUCUCAACUAUGACACGCAAAACGCGUGCUCCGUUGAAUGGAGUUUAUCAUG [G48U C75G G92U],≤ -4.2

# Source: the RNAGym collection of RNA variant scans (doi:10.1073/pnas.2313332121)
